Three molecules from PMC5125619 (Nature, 2016) can be followed below.

Assay [1] addresses FAM-labelled RBBP5 peptide (residues 330–363) mixed with ASH2L(SPRY) (human) (UniProt Q15291). In words: fluorescence polarisation.
The target of a further assay is MLL3 SET domain (human, UniProt Q8NEZ4 4757-4911). In words: crystal structure.
Sequence of MLL3 SET domain (human, UniProt Q8NEZ4 4757-4911) (Q8NEZ4 4757-4911): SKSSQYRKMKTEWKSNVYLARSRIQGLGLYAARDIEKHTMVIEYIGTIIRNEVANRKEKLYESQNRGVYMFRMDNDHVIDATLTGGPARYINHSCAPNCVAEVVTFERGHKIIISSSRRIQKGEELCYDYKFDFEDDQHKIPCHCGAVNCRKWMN

In assay [1], “MLL1 SET domain (from UniProt Q03164 3829-3945) (domain or fragment)” gave a Kd of over 100 µM.
Same read-out and setting: the result for “MLL3 SET domain (from UniProt Q8NEZ4 4757-4911) (domain or fragment)” reads 0.1 µM.

B1: H3 peptide (H3 residues 1–9) (peptide)
peptide: ARTKQTARK
B1: in the assay with MLL3 SET domain, the binding result is recorded as “binds”.

What is called Kd is the free concentration of one partner at which half of the binding sites on the other are occupied at equilibrium, for simple one-to-one binding. Low values mean a tighter complex, high ones a looser complex.
